Positions count from the first letter of the chain named. Numbered stars: 1 amine (or outer) side, 2 acyl side, 3 side chain; on linkers, the order of the positions; unused ones are H or OH. Side chains are listed from the residue outwards. * marks the point of attachment. Hexadecanoyl(16-SO3H) = O=C(CCCCCCCCCCCCCCCS(=O)(=O)O)*; C18 diacid = O=C(O)CCCCCCCCCCCCCCCCC(=O)*; γGlu = O=C(O)[C@H](CCC(=O)[*:2])N[*:1]; Isovaleryl = CC(C)CC(=O)*; AEEA = NCCOCCOCC(=O)O
B1: N{alpha-4}-(3-Methylbutanoyl)-N{Epsilon-7}-[2-[2-[2-[[(4S)-4-carboxy-4-(13-carboxytridecanoylamino)butanoyl]amino]ethoxy]ethoxy]acetyl]-[Arg4,Lys7,Pro9,Gln18,Ty … (peptide)
peptide: RPEKPPEDASPEELQRYYASLRHYYNWLTRQRY
modifications: N-terminal alpha-amino (position 4): 3-methylbutanoyl; Lys7 (hPYY(1-36) numbering) epsilon-amino: [2-[2-[2-[[(4S)-4-carboxy-4-(13-carboxytridecanoylamino)butanoyl]amino]ethoxy]ethoxy]acetyl]; C-terminal amide
notes: also called Compound 71; 71
B2: N{alpha-4}-(3-Methylbutanoyl)-N{Epsilon-10}-[(4S)-4-carboxy-4-[[2-[2-[2-[[(4S)-4-carboxy-4-(17-carboxyheptadecanoylamino)butanoyl]amino]ethoxy]ethoxy]-acetyl]am … (peptide)
peptide: Isovaleryl-RPEAPGK([γGlu-AEEA-γGlu-C18 diacid])DASPEELQRYYESLRHYYNWLTRQRY-NH2
SMILES: CC(C)CC(=O)N[C@@H](CCCNC(=N)N)C(=O)N1CCC[C@H]1C(=O)N[C@@H](CCC(=O)O)C(=O)N[C@@H](C)C(=O)N1CCC[C@H]1C(=O)NCC(=O)N[C@@H](CCCCNC(=O)CC[C@H](NC(=O)COCCOCCNC(=O)CC[C@H](NC(=O)CCCCCCCCCCCCCCCCC(=O)O)C(=O)O)C(=O)O)C(=O)N[C@@H](CC(=O)O)C(=O)N[C@@H](C)C(=O)N[C@@H](CO)C(=O)N1CCC[C@H]1C(=O)N[C@@H](CCC(=O)O)C(=O)N[C@@H](CCC(=O)O)C(=O)N[C@@H](CC(C)C)C(=O)N[C@@H](CCC(N)=O)C(=O)N[C@@H](CCCNC(=N)N)C(=O)N[C@@H](Cc1ccc(O)cc1)C(=O)N[C@@H](Cc1ccc(O)cc1)C(=O)N[C@@H](CCC(=O)O)C(=O)N[C@@H](CO)C(=O)N[C@@H](CC(C)C)C(=O)N[C@@H](CCCNC(=N)N)C(=O)N[C@@H](Cc1c[nH]cn1)C(=O)N[C@@H](Cc1ccc(O)cc1)C(=O)N[C@@H](Cc1ccc(O)cc1)C(=O)N[C@@H](CC(N)=O)C(=O)N[C@@H](Cc1c[nH]c2ccccc12)C(=O)N[C@@H](CC(C)C)C(=O)N[C@H](C(=O)N[C@@H](CCCNC(=N)N)C(=O)N[C@@H](CCC(N)=O)C(=O)N[C@@H](CCCNC(=N)N)C(=O)N[C@@H](Cc1ccc(O)cc1)C(N)=O)[C@@H](C)O
notes: also called Compound 50; 50
B3: N{alpha-4}-(3-Methylbutanoyl)-N{Epsilon-10}-[(4S)-4-carboxy-4-[[2-[2-[2-[[(4S)-4-carboxy-4-(16-sulfohexadecanoylamino)butanoyl]amino]ethoxy]-ethoxy]acetyl]amino … (peptide)
peptide: Isovaleryl-RPEAPPK([γGlu-AEEA-γGlu-Hexadecanoyl(16-SO3H)])DASPEELQRYYASLRHYYNWLTRQRY-NH2
SMILES: CC(C)CC(=O)N[C@@H](CCCNC(=N)N)C(=O)N1CCC[C@H]1C(=O)N[C@@H](CCC(=O)O)C(=O)N[C@@H](C)C(=O)N1CCC[C@H]1C(=O)N1CCC[C@H]1C(=O)N[C@@H](CCCCNC(=O)CC[C@H](NC(=O)COCCOCCNC(=O)CC[C@H](NC(=O)CCCCCCCCCCCCCCCS(=O)(=O)O)C(=O)O)C(=O)O)C(=O)N[C@@H](CC(=O)O)C(=O)N[C@@H](C)C(=O)N[C@@H](CO)C(=O)N1CCC[C@H]1C(=O)N[C@@H](CCC(=O)O)C(=O)N[C@@H](CCC(=O)O)C(=O)N[C@@H](CC(C)C)C(=O)N[C@@H](CCC(N)=O)C(=O)N[C@@H](CCCNC(=N)N)C(=O)N[C@@H](Cc1ccc(O)cc1)C(=O)N[C@@H](Cc1ccc(O)cc1)C(=O)N[C@@H](C)C(=O)N[C@@H](CO)C(=O)N[C@@H](CC(C)C)C(=O)N[C@@H](CCCNC(=N)N)C(=O)N[C@@H](Cc1c[nH]cn1)C(=O)N[C@@H](Cc1ccc(O)cc1)C(=O)N[C@@H](Cc1ccc(O)cc1)C(=O)N[C@@H](CC(N)=O)C(=O)N[C@@H](Cc1c[nH]c2ccccc12)C(=O)N[C@@H](CC(C)C)C(=O)N[C@H](C(=O)N[C@@H](CCCNC(=N)N)C(=O)N[C@@H](CCC(N)=O)C(=O)N[C@@H](CCCNC(=N)N)C(=O)N[C@@H](Cc1ccc(O)cc1)C(N)=O)[C@@H](C)O
notes: also called Compound 69; 69
B4: N{alpha-4}-(3-Methylbutanoyl)-N{Epsilon-7}-[(4S)-4-carboxy-4-(17-carboxy-heptadecanoylamino)butanoyl]-[Arg4,Lys7,Thr9,Gln18,Val22,Tyr28,Trp30,Leu31]hPYY(4-36) (peptide)
peptide: B1 peptide with P6T, A19V
HELM: PEPTIDE1{[CC(C)CC(=O)[*:2]].R.P.E.K.P.T.E.D.A.S.P.E.E.L.Q.R.Y.Y.V.S.L.R.H.Y.Y.N.W.L.T.R.Q.R.Y.[am]}|PEPTIDE2{[O=C(O)CCCCCCCCCCCCCCCCC(=O)[*:2]].[gGlu]}$PEPTIDE1,PEPTIDE2,5:R3-2:R2$$$V2.0
SMILES: CC(C)CC(=O)N[C@@H](CCCNC(=N)N)C(=O)N1CCC[C@H]1C(=O)N[C@@H](CCC(=O)O)C(=O)N[C@@H](CCCCNC(=O)CC[C@H](NC(=O)CCCCCCCCCCCCCCCCC(=O)O)C(=O)O)C(=O)N1CCC[C@H]1C(=O)N[C@H](C(=O)N[C@@H](CCC(=O)O)C(=O)N[C@@H](CC(=O)O)C(=O)N[C@@H](C)C(=O)N[C@@H](CO)C(=O)N1CCC[C@H]1C(=O)N[C@@H](CCC(=O)O)C(=O)N[C@@H](CCC(=O)O)C(=O)N[C@@H](CC(C)C)C(=O)N[C@@H](CCC(N)=O)C(=O)N[C@@H](CCCNC(=N)N)C(=O)N[C@@H](Cc1ccc(O)cc1)C(=O)N[C@@H](Cc1ccc(O)cc1)C(=O)N[C@H](C(=O)N[C@@H](CO)C(=O)N[C@@H](CC(C)C)C(=O)N[C@@H](CCCNC(=N)N)C(=O)N[C@@H](Cc1c[nH]cn1)C(=O)N[C@@H](Cc1ccc(O)cc1)C(=O)N[C@@H](Cc1ccc(O)cc1)C(=O)N[C@@H](CC(N)=O)C(=O)N[C@@H](Cc1c[nH]c2ccccc12)C(=O)N[C@@H](CC(C)C)C(=O)N[C@H](C(=O)N[C@@H](CCCNC(=N)N)C(=O)N[C@@H](CCC(N)=O)C(=O)N[C@@H](CCCNC(=N)N)C(=O)N[C@@H](Cc1ccc(O)cc1)C(N)=O)[C@@H](C)O)C(C)C)[C@@H](C)O
notes: also called Compound 44; 44
B5: N{alpha-4}-(3-Methylbutanoyl)-N{Epsilon-10}-[(4S)-4-carboxy-4-[[2-[2-[2-[[(4S)-4-carboxy-4-(17-carboxyheptadecanoylamino)butanoyl]amino]ethoxy]ethoxy]-acetyl]am … (peptide)
peptide: Isovaleryl-RPEAPGK([γGlu-AEEA-γGlu-C18 diacid])DASPEELQRYYAELRHYYNWLTRQRY-NH2
SMILES: CC(C)CC(=O)N[C@@H](CCCNC(=N)N)C(=O)N1CCC[C@H]1C(=O)N[C@@H](CCC(=O)O)C(=O)N[C@@H](C)C(=O)N1CCC[C@H]1C(=O)NCC(=O)N[C@@H](CCCCNC(=O)CC[C@H](NC(=O)COCCOCCNC(=O)CC[C@H](NC(=O)CCCCCCCCCCCCCCCCC(=O)O)C(=O)O)C(=O)O)C(=O)N[C@@H](CC(=O)O)C(=O)N[C@@H](C)C(=O)N[C@@H](CO)C(=O)N1CCC[C@H]1C(=O)N[C@@H](CCC(=O)O)C(=O)N[C@@H](CCC(=O)O)C(=O)N[C@@H](CC(C)C)C(=O)N[C@@H](CCC(N)=O)C(=O)N[C@@H](CCCNC(=N)N)C(=O)N[C@@H](Cc1ccc(O)cc1)C(=O)N[C@@H](Cc1ccc(O)cc1)C(=O)N[C@@H](C)C(=O)N[C@@H](CCC(=O)O)C(=O)N[C@@H](CC(C)C)C(=O)N[C@@H](CCCNC(=N)N)C(=O)N[C@@H](Cc1c[nH]cn1)C(=O)N[C@@H](Cc1ccc(O)cc1)C(=O)N[C@@H](Cc1ccc(O)cc1)C(=O)N[C@@H](CC(N)=O)C(=O)N[C@@H](Cc1c[nH]c2ccccc12)C(=O)N[C@@H](CC(C)C)C(=O)N[C@H](C(=O)N[C@@H](CCCNC(=N)N)C(=O)N[C@@H](CCC(N)=O)C(=O)N[C@@H](CCCNC(=N)N)C(=O)N[C@@H](Cc1ccc(O)cc1)C(N)=O)[C@@H](C)O
notes: also called Compound 53; 53
B6: N{alpha-4}-(3-Methylbutanoyl)-N{Epsilon-7}-[(4S)-4-carboxy-4-[[(4S)-4-carboxy-4-(19-carboxynonadecanoylamino)butanoyl]amino]butanoyl]-[Arg4,Lys7,Pro9,Gln18, … (peptide)
peptide: B1 peptide
modifications: N-terminal alpha-amino (position 4): 3-methylbutanoyl; Lys7 (hPYY(1-36) numbering) epsilon-amino: [(4S)-4-carboxy-4-[[(4S)-4-carboxy-4-(19-carboxynonadecanoylamino)butanoyl]amino]butanoyl]; C-terminal amide
notes: also called Compound 12; 12

Columns and labels:
[1] = molecular target: T1, human Y2 receptor (P49146, NPY2R_HUMAN, Uniprot) (human, UniProt P49146 1-381); assay: cell-based or functional assay
T1 sequence (looked up): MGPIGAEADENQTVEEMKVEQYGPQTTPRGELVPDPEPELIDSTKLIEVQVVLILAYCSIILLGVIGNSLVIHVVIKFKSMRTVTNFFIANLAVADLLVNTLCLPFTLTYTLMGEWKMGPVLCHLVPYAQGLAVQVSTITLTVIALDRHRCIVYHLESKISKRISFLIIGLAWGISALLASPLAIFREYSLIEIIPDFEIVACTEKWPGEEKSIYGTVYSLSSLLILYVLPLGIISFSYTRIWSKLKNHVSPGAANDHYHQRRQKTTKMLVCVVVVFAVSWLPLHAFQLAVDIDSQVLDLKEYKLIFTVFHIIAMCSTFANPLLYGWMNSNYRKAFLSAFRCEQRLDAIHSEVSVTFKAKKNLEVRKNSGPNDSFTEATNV

[2] = molecular target: T1, human Y2 receptor (P49146, NPY2R_HUMAN, …); assay: SPA vs [125I]-PYY(1-36)
Procedure: (§1) Human Y receptor SPA binding assay were performed in white 96-well plates in a total volume of 200 μl per well.
(§2) Plates were sealed and incubated at +25° C. for 2 hours in a plate shaker set at 400 rpm and thereafter centrifuged at 1500 rpm for 10 minutes prior to reading of luminescence on a microplate scintillation and luminescence counter.

[3] = molecular target: T2, human Y4 receptor (P50391, NPY4R_HUMAN, Uniprot) (human, UniProt P50391 1-375); assay: SPA vs [125I]-PP
T2 construct: whole, on cells; Assayed as membrane preparations of the expressing cells
Procedure: as §1, §2

[4] = molecular target: T3, human Y5 receptor (Q15761, NPY5R_HUMAN, Uniprot) (human, UniProt Q15761 1-445); assay: SPA vs [125I]-PYY(1-36)
T3 construct: whole, on cells; Assayed as membrane preparations of the expressing cells
T3 sequence (looked up): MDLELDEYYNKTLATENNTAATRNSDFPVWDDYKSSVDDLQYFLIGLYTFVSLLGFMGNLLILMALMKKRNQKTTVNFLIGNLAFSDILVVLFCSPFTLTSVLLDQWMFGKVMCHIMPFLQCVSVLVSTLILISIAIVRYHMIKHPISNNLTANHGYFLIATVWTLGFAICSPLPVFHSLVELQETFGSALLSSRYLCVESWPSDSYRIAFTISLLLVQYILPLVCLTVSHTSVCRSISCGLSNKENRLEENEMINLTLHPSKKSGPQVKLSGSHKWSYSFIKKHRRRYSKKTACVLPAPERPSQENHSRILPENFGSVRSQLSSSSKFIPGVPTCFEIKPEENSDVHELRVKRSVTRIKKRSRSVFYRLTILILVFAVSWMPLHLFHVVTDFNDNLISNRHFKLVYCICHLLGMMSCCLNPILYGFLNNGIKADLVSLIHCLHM
Procedure: as §1, §2

[5] = molecular target: T2, human Y4 receptor (P50391, NPY4R_HUMAN, …); assay: ratio of SPA values, Y2 as reference
Procedure: as §1, §2

[6] = molecular target: T3, human Y5 receptor (Q15761, NPY5R_HUMAN, …); assay: ratio of SPA values, Y2 as reference
Procedure: as §1, §2

T2 sequence (P50391 whole entry, one chain of several): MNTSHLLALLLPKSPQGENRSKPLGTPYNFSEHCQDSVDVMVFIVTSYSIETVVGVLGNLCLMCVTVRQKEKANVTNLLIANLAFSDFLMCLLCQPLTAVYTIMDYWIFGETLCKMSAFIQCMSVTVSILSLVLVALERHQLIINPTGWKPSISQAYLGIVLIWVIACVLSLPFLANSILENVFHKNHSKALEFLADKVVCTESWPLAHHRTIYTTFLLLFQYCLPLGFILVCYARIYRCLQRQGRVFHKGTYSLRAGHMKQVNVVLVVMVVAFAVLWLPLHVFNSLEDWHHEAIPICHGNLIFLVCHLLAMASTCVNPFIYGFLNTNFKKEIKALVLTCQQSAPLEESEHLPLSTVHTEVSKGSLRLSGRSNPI

| Binder | Y2 EC50, Actone functional potency assay [1] | Ki [2] | Ki [3] | Ki [4] | Ratio of Y4/Y2 EC50 values [5] | Ratio of Y5/Y2 EC50 values [6] |
| --- | --- | --- | --- | --- | --- | --- |
| B1 | 0.5 nM | 0.51 nM | – | – | – | – |
| Isovaleryl-RPEK([γGlu-C18 diacid])PTEDASPEELQRYYQSLRHYYNWLTRQRY-NH2 (also called Compound 43) | 0.77 nM | – | 6400 nM | 509 nM | – | – |
| B2 | – | 3.3 nM | – | 122 nM | – | – |
| Isovaleryl-RPEAPGK([AEEA-AEEA-γGlu-C18 diacid])DASPEELQRYYAELRHYYNWLTRQRY-NH2 (also called Compound 52; 52) | – | 0.66 nM | 5690 nM | 182 nM | 8620 | 275 |
| Isovaleryl-RPEAPGK([γGlu-AEEA-γGlu-C18 diacid])DASPEELQRYYASLRHYYNWLTRQRY-NH2 (also called Compound 59; 59) | – | – | – | 279 nM | – | – |
| B3 | – | 0.94 nM | 5690 nM | 146 nM | – | – |
| B4 | 1.35 nM | 0.33 nM | 6670 nM | 470 nM | 20200 | 1420 |
| B5 | 0.77 nM | 1.15 nM | 9290 nM | 452 nM | 8080 | 393 |
| B6 | 4.35 nM | 1.1 nM | – | – | – | – |

— patent US20170313750A1 (Novo Nordisk, published 2017)
